# From US20240059799A1 (Pfizer, published 2024)
# Numbering of substitutions follows the chain as printed.
# T1: recombinant human TL1A (human, UniProt O95150 71-251)
# T1 construct: Homotrimeric cytokine; biotinylated with Sulfo-NHS-biotin where captured for SPR, coated unlabelled in ELISA, soluble in bioassays; also called TNFSF15
# T1 chain: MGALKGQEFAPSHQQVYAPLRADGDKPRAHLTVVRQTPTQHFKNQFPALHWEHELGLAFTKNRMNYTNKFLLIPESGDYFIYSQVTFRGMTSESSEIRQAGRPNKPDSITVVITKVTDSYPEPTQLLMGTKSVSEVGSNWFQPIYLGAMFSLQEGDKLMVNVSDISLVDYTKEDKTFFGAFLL
# T2: full-length human TL1A on CHO-K1 cells (human, UniProt O95150 1-251)
# T2 construct: whole, on cells; also called cells over-expressing human TL1A
# T2 sequence (looked up): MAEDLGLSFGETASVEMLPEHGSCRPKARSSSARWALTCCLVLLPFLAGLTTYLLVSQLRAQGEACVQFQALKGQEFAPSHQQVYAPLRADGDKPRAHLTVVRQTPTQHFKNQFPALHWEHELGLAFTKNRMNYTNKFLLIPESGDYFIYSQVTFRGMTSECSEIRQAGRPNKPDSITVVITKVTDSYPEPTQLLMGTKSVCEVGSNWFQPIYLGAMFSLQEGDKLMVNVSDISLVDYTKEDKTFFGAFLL
# B1: TL1A-0371 MBsAb (bispecific antibody)
# heavy 1: QVQLVQSGAEVKKPGASVKVSCKASGYDYTYYGISWVRQAPGQGLEWMGWISTYNTGTHYAPSLQGRVTMTTDTSTSTAYMELRSLRSDDTAVYYCARESYYGSGAFRGGMDVWGQGTTVTVSSASTKGPSVFPLAPSSKSTSGGTAALGCLVKDYFPEPVTVSWNSGALTSGVHTFPAVLQSSGLYSLSSVVTVPSSSLGTQTYICNVNHKPSNTKVDKKVEPKSCDKTHTCPPCPAPEAAGAPSVFLFPPKPKDTLMISRTPEVTCVVVDVSHEDPEVKFNWYVDGVEVHNAKTKPREEQYNSTYRVVSVLTVLHQDWLNGKEYKCKVSNKALPAPIEKTISKAKGQPREPQVCTLPPSREEMTKNQVSLWCLVKGFYPSDIAVEWESNGQPENNYKTTPPVLDSDGSFFLYSKLTVDKSRWQQGNVFSCSVLHEALHSHYTQKSLSLSPGK
# heavy 2: not shown
# light: not shown
# notes: not shown: human IgG1 constant region with hole KiH, effector-minimizing and LS mutations
# B2: TL1A-0374 MBsAb (bispecific antibody)
# heavy 1: B1 heavy 1
# heavy 2: not shown
# light: not shown
# notes: as for B1
# B3: TL1A-0375 MBsAb (bispecific antibody)
# heavy 1: B1 heavy 1
# heavy 2: not shown
# light: not shown
# notes: as for B1
# B4: TL1A-0373 MBsAb (bispecific antibody)
# heavy 1: B1 heavy 1
# heavy 2: not shown
# light: not shown
# notes: as for B1
# B5: TL1A-0368 MBsAb (bispecific antibody)
# heavy 1: B1 heavy 1
# heavy 2: QVQLVQSGAEVKKPGASVKVSCKASGYTFTSYGISWVRQAPGQGLEWMGWISAYNGNTNYAQKLQGRVTMTTDTSTSTAYMELRSLRSDDTAVYYCARESYYGSEAFRAGMDVWGQGTTVTVSS
# light: not shown
# notes: as for B1
# B6: TL1A-0370 MBsAb (bispecific antibody)
# heavy 1: B1 heavy 1
# heavy 2: B5 heavy 2 with Y101S
# light: not shown
# notes: as for B1
# B7: [xTL1A]-0336 (antibody, human IgG1, kappa, V domains shown)
# VH: B5 heavy 2
# VL: DIQMTQSPSSLSASVGDRVTITCRASQSVSSYLAWYQQKPGKAPKLLIYDASNRATGVPSRFSGSGSGTDFTLTISSLQPEDFATYYCQQRSNWPWTFGQGTKVEIKR
# notes: bivalent disabled antibody, IgG1 effector-function-minimized/kappa
# B8: [xTL1A]-0363 (antibody, human IgG1, kappa, V domains shown)
# VH: not shown
# VL: B7 VL
# notes: as for B7
# B9: [xTL1A]-0352 (antibody, human IgG1, kappa, V domains shown)
# VH: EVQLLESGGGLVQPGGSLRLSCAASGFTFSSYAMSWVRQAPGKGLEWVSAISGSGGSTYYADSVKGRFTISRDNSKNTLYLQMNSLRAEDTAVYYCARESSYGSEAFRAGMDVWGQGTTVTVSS
# VL: B7 VL
# notes: as for B7
# B10: [xTL1A]-0358 (antibody, human IgG1, kappa, V domains shown)
# VH: not shown
# VL: B7 VL
# notes: as for B7
# B11: [xTL1A]-0347 (antibody, human IgG1, kappa, V domains shown)
# VH: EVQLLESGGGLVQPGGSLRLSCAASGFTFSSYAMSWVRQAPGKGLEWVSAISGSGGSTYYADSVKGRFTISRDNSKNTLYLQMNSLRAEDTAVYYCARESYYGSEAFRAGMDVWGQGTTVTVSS
# VL: B7 VL
# notes: as for B7
# B12: [xTL1A]-0338 (antibody, human IgG1, kappa, V domains shown)
# VH: B5 heavy 2 with Y101S, A109G
# VL: B7 VL
# notes: as for B7
# B13: [xTL1A]-0349 (antibody, human IgG1, kappa, V domains shown)
# VH: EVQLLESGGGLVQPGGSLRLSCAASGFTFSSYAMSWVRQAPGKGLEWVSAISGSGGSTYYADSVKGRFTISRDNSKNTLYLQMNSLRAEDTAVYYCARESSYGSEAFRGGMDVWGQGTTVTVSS
# VL: B7 VL
# notes: as for B7
# Target: T3, bovine serum albumin (bovine, UniProt P02769 25-607)
# T3 construct: also called BSA
# T3 sequence (P02769 25-607 limits assumed): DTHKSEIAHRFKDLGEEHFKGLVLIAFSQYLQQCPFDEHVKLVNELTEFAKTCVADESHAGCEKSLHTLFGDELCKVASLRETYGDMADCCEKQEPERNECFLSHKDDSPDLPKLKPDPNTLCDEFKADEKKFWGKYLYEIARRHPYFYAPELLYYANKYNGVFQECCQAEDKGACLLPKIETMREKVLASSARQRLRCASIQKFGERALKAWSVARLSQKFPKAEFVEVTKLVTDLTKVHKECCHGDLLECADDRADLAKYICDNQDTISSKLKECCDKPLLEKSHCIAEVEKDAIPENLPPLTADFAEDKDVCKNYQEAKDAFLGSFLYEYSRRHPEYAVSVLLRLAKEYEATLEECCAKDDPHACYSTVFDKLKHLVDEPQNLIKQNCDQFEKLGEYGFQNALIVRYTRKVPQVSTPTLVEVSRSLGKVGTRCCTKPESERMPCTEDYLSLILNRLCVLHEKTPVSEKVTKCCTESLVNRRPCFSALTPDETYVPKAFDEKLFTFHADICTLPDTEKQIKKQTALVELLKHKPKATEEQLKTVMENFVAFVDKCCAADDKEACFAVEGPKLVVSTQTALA
# Test: direct binding ELISA on coated BSA
# Method: (§1) For the direct binding ELISA method to HSA or BSA, 96-well high binding plates (Corning, product number 3590) were coated with 1 μg/mL recombinant HSA or BSA in 100 μL/well in PBS overnight at 4° C. Plates were then blocked in PBS+0.02% casein solution and washed with PBS+0.05% Tween-20 following standard ELISA protocol. […] Plates were washed with PBS+0.05% Tween-20 following standard ELISA protocol, and goat anti-human IgG-Fc HRP conjugated secondary antibody (Pierce, #31413) diluted to 1:10,000 in assay buffer was added to plates and incubated for 1 hour at room temperature. Next, the plates were washed with PBS+0.05% Tween-20 following standard ELISA protocol, and then TMB substrate (BioFX Laboratories, catalog number TMBW-0100-01) was added to plates.
# (§2) Reactions were stopped after approximately 5 minutes by adding 0.18 M ortho-phosphoric acid to each well and absorbance was read at 450 nm. […] For this method, samples diluted to 0.3 mg/mL were dispensed into the sample tray of a MicroCal VP-Capillary DSC with Autosampler (Malvern Instruments, Inc.), equilibrated for 5 minutes at 10° C. and then scanned up to 110° C. at a rate of 100° C. per/hour. A filtering period of 16 seconds was selected. Raw data was baseline corrected and the protein concentration was normalized. Origin Software 7.0 (Origin Lab Corporation, Northampton, MA) was used to fit the data to an MN2-State Model with an appropriate number of transitions.
row,binding result,Binder
1,no binding (tested: 0.5-1000 nM),B1
2,no binding (tested: 0.5-1000 nM),B2
3,no binding (tested: 0.5-1000 nM),B3
4,no binding (tested: 0.5-1000 nM),B4
5,no binding (tested: 0.5-1000 nM),B5
6,no binding (tested: 0.5-1000 nM),B6

# Target: T4, human serum albumin (human, UniProt P02768 25-609)
# T4 construct: also called HSA
# Test: direct binding ELISA on coated HSA
# Method: as §1, §2
row,binding result,Binder
1,no binding (tested: 0.5-1000 nM),B1
2,no binding (tested: 0.5-1000 nM),B2
3,no binding (tested: 0.5-1000 nM),B3
4,no binding (tested: 0.5-1000 nM),B4
5,no binding (tested: 0.5-1000 nM),B5
6,no binding (tested: 0.5-1000 nM),B6

# Target: T1, recombinant human TL1A
# Test: direct binding ELISA on plate-coated recombinant human TL1A (1 ug/mL), anti-human IgG-Fc HRP, OD450
# Method: For the direct binding ELISA, 96-well high binding plates (Corning, product number 3590) were coated with 1 μg/mL recombinant TL1A in 100 μL/well in PBS overnight at 4° C. Plates were then blocked in PBS+0.02% casein solution and washed with PBS+0.05% Tween-20 following standard ELISA protocol. […] Plates were washed with PBS+0.05% Tween-20 following a standard ELISA protocol, and goat anti-human IgG-Fc HRP conjugated secondary antibody (Pierce, catalog number 31413) diluted to 1:10,000 in assay buffer was added to plates and incubated for 1 hour at room temperature. Next, the plates were washed with PBS+0.05% Tween-20 following a standard ELISA protocol, and then TMB substrate (BioFX Laboratories, catalog number TMBW-0100-01) was added to the plates. Reactions were stopped after approximately 5 minutes by adding 0.18 M ortho-phosphoric acid to each well and absorbance was read at 450 nm.
row,binding result,Binder
1,no binding (tested: 33.3 nM),B7
2,no binding (tested: 33.3 nM),B8
3,no binding (tested: 33.3 nM),B9
4,no binding (tested: 33.3 nM),B10
5,no binding (tested: 33.3 nM),B11
6,no binding (tested: 33.3 nM),B12
7,no binding (tested: 33.3 nM),B13

# Target: T2, full-length human TL1A on CHO-K1 cells
# Test: flow cytometry on CHO-K1 cells stably expressing full-length human TL1A, PE anti-human IgG, median fluorescent intensity
# Method: A cell binding assay was performed to examine if the panel of [xTL1A] bivalent antibody variants could bind to human TL1A over-expressed on the cell surface. […] [xTL1A] bivalent antibody variants were incubated with cells on ice for 30-60 minutes at a concentration of either 1 μg/mL or 20 μg/mL. Cells were pelleted by centrifugation at 1500 RPM for 5 minutes at 4° C. and supernatant was discarded by aspiration. The cells were washed three times with DPBS with 4% FBS buffer as described. Cells were resuspended in 100 μL of PE-anti-human IgG (Life technologies Catalog number H10104) diluted 1:500 in DPBS with 4% FBS buffer and incubated on ice for 15 minutes. Cells were washed three times as described and resuspended in 200 μL of DPBS with 4% FBS buffer, then run on a flow cytometry instrument.
row,binding result,Binder
1,no binding (tested: 20 ug/mL),B7
2,no binding (tested: 20 ug/mL),B8
3,no binding (tested: 20 ug/mL),B9
4,no binding (tested: 20 ug/mL),B10
5,no binding (tested: 20 ug/mL),B11
6,no binding (tested: 20 ug/mL),B12
7,no binding (tested: 20 ug/mL),B13
